{"source": "paper PMC10719177", "key": {"[1]": {"assay": "confocal colocalisation with LAMP-1/CD63 (Pearson), cell lines", "details": "control: untreated cells"}, "[2]": {"assay": "western blot of cell media", "details": "glycan lost; control: untreated cells"}, "[3]": {"assay": "confocal colocalisation (Pearson), primary and super-charged NK cells", "details": "glycan changed form; control: untreated cells"}}, "data": [{"protein": "cystatin F: kifunensine (10 µM, 6 h); U-937, TALL-104, NK-92 (protein) parent chain: MRAAGTLLAFCCLVLSTTGGPSPDTCSQDLNSRVKPGFPKTIKTNDPGVLQAARYSVEKFNNCTNDMFLFKESRITRALVQIVKGLKYMLEVEIGRTTCKKNQHLRLDDCDFQTNHTLKQTLSCYSEVWVVPWLQHFEVPVLRCH", "values": [{"measurement": "localisation_or_trafficking", "setting": "[1]; glycan changed form", "result": "increases"}]}, {"protein": "cystatin F: tunicamycin (protein) parent chain: MRAAGTLLAFCCLVLSTTGGPSPDTCSQDLNSRVKPGFPKTIKTNDPGVLQAARYSVEKFNNCTNDMFLFKESRITRALVQIVKGLKYMLEVEIGRTTCKKNQHLRLDDCDFQTNHTLKQTLSCYSEVWVVPWLQHFEVPVLRCH", "values": [{"measurement": "expression_or_secretion", "setting": "[2]", "result": "changes"}]}, {"protein": "cystatin F: tunicamycin (1 µg/mL); U-937, NK-92 (protein) parent chain: MRAAGTLLAFCCLVLSTTGGPSPDTCSQDLNSRVKPGFPKTIKTNDPGVLQAARYSVEKFNNCTNDMFLFKESRITRALVQIVKGLKYMLEVEIGRTTCKKNQHLRLDDCDFQTNHTLKQTLSCYSEVWVVPWLQHFEVPVLRCH", "values": [{"measurement": "localisation_or_trafficking", "setting": "[1]; glycan lost", "result": "decreases"}]}, {"protein": "cystatin F: kifunensine (10 µM, 6 h); pNK, sNK (protein) parent chain: MRAAGTLLAFCCLVLSTTGGPSPDTCSQDLNSRVKPGFPKTIKTNDPGVLQAARYSVEKFNNCTNDMFLFKESRITRALVQIVKGLKYMLEVEIGRTTCKKNQHLRLDDCDFQTNHTLKQTLSCYSEVWVVPWLQHFEVPVLRCH", "values": [{"measurement": "localisation_or_trafficking", "setting": "[3]", "result": "increases"}]}]}
